# According to US20030026803A1 (published 2003):
# T1: soluble rat CD4 (rat, UniProt P05540 28-394, limits assumed)
# T1 sequence (looked up): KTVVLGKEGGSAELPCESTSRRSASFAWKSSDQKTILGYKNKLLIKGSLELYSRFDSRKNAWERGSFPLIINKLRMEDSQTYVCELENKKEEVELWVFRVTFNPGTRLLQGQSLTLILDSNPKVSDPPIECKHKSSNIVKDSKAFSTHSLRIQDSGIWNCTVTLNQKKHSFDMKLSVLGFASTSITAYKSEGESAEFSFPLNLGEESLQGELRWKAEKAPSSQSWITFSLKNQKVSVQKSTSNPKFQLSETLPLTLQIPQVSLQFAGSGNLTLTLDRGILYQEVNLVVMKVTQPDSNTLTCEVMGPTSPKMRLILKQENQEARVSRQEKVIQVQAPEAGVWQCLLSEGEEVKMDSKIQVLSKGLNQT
# B1: hCD47-CD4d3+4 (single extracellular IgSF domain of human CD47 fused to rat CD4 domains 3+4) (ligand, human;rat, UniProt Q08722 19-136, looked up)
# chain: QLLFNKTKSVEFTFCNDTVVIPCFVTNMEAQNTTEVYVKWKFKGRDIYTFDGALNKSTVPTDFSSAKIEVSQLLKGDASLKMDKSDAVSHTGNYTCEVTELTREGETIIELKYRVVSWSTSITAYKSEGESAEFSFPLNLGEESLQGELRWKAEKAPSSQSWITFSLKNQKVSVQKSTSNPKFQLSETLPLTLQIPQVSLQFAGSGNLTLTLDRGILYQEVNLVVMKVTQPDSNTLTCEVMGPTSPKMRLILKQENQEARVSRQEKVIQVQAPEAGVWQCLLSEGEEVKMDSKIQVLSKGLN
# notes: extracellular domain;domain: CD4 domains 3+4; Used as a monomer in solution, or captured via OX68; also called soluble human CD47-CD4d3+4; soluble hCD47; not shown: biotinylation peptide of the CD4d3+4-biotin vector
# B2: V-SIRP-CD4d3+4 (NH2-terminal V-like domain of hSIRP in frame with rat CD4 domains 3+4) (receptor, human;rat, UniProt P78324 31-148, looked up)
# chain: EEELQVIQPDKSVLVAAGETATLRCTATSLIPVGPIQWFRGAGPGRELIYNQKEGHFPRVTTVSDLTKRNNMDFSIRIGNITPADAGTYYCVKFRKGSPDDVEFKSGAGTELSVRAKPSTSITAYKSEGESAEFSFPLNLGEESLQGELRWKAEKAPSSQSWITFSLKNQKVSVQKSTSNPKFQLSETLPLTLQIPQVSLQFAGSGNLTLTLDRGILYQEVNLVVMKVTQPDSNTLTCEVMGPTSPKMRLILKQENQEARVSRQEKVIQVQAPEAGVWQCLLSEGEEVKMDSKIQVLSKGLN
# notes: domain: NH2-terminal V-like domain;domain: CD4 domains 3+4; Captured on the chip via OX68; also called single SIRP V domain CD4d3+4 fusion protein
# Experiments:
# [1] = biological target: T2, hSIRP-Fc (extracellular region of human SIRPα fused to the Fc region of human IgG) (human, UniProt P78324 31-373); test: BIAcore, 37° C; apparent rate constant, hSIRP-Fc at the higher level
# T2 construct: extracellular domain; also called human SIRP-Fc; dimeric hSIRP-Fc; not shown: human IgG Fc from vector pIg PLUS (R&D Systems)
# Experimental: (§1) (C) Soluble hCD47 (18.3 μM) was injected over immobilised hSIRP-Fc immobilised at high (6500 RU) (filled circles) and low (3000) levels (filled up triangles), and hCTLA-4-Fc (6290 RU) (filled down triangles). Values for koff=1.6 s⁻¹ for hSIRP-Fc high, 2.1 s⁻¹ hSIRP-Fc low and 7.0 s⁻¹ for hCTLA-4-Fc were calculated by exponential decay curve fitting (line) to dissociation data (symbols).
# (§2) BIAcore analysis was carried out using a BIAcore™ 2000 biosensor instrument (Biacore AB) as previously described (Brown et al., (1998) J. Exp. Med. 188:2083-90, van der Merwe, et al., (1994) Biochemistry 33:101489-60) using CM5 research grade chips. […] For equilibrium binding increasing and decreasing concentrations of monomeric hCD47-CD4d3+4 were passed over hSIRP-Fc (6500 RU). For kinetic measurements hCD47-CD4d3+4 (18.30 μM) was passed over hSIRP-Fc immobilised at 6500 RU and 3000 RU and a control, CTLA4-Fc (6300 RU). CD47mAb blocking and V-SIRP-CD4d3+4 binding experiments were carried out at 10 and 5 μl/min respectively at 25° C.
# (§3) To measure the affinity of the interaction hSIRP-Fc was directly immobilised and monomeric hCD47-CD4d3+4 passed over it. As shown in FIG. 5A hCD47-CD4d3+4 bound specifically to hSIRP-Fc in a dose dependent manner. […] The apparent rate constants were calculated as koff=1.3 s⁻¹ for the higher level of hSIRP-Fc and koff=2.1 s⁻¹ for the lower level (FIG. 5C). […]
# [2] = biological target: T2, hSIRP-Fc (extracellular region of human …); test: BIAcore equilibrium binding at 37° C, non linear curve fitting of the Langmuir isotherm; hSIRP-Fc immobilised (6525 RU), control subtracted
# Experimental: (§4) FIG. 5. Affinity and dissociation rate of soluble human CD47-CD4d3+4 binding to human SIRP-Fc. (A) Soluble monomeric hCD47-CD4d3+4 was injected at the indicated concentrations in 1 μM through flowcells immobilised hSIRP-Fc (6525 RU) (solid line), or as a negative control CTLA-4-Fc (6290 RU) (dotted line) at 37° C. (B) the difference between the response between the response at equilibrium in the hSIRP-Fc flowcell and the control flow cell is plotted against the hCD47-CD4d3+4 concentration. A kd=8.5 μM and maximal binding of 1400 RU were calculated by non linear curve fitting of the Langmuir isotherm (line) to data (circles) from A with negative control subtracted. […] (C) Soluble hCD47 (18.3 μM) was injected over immobilised hSIRP-Fc immobilised at high (6500 RU) (filled circles) and low (3000) levels (filled up triangles), and hCTLA-4-Fc (6290 RU) (filled down triangles). Values for koff=1.6 s⁻¹ for hSIRP-Fc high, 2.1 s⁻¹ hSIRP-Fc low and 7.0 s⁻¹ for hCTLA-4-Fc were calculated by exponential decay curve fitting (line) to dissociation data (symbols).
# (§5) BIAcore analysis was carried out using a BIAcore™ 2000 biosensor instrument (Biacore AB) as previously described (Brown et al., (1998) J. Exp. Med. 188:2083-90, van der Merwe, et al., (1994) Biochemistry 33:101489-60) using CM5 research grade chips. […]
# [3] = biological target: T2, hSIRP-Fc (extracellular region of human …); test: BIAcore, 37° C; 18.3 µM hCD47-CD4d3+4 over hSIRP-Fc at 3000 RU, exponential decay fitting
# Experimental: as §4, §5
# [4] = biological target: T2, hSIRP-Fc (extracellular region of human …); test: BIAcore equilibrium binding at 37° C, Scatchard analysis
# Experimental: as §1, §2, §3
# [5] = biological target: T2, hSIRP-Fc (extracellular region of human …); test: BIAcore, 37° C; 18.3 µM hCD47-CD4d3+4 over hSIRP-Fc at 6500 RU, exponential decay fitting
# Experimental: as §4, §5
# [6] = biological target: T2, hSIRP-Fc (extracellular region of human …); test: BIAcore, 37° C; lower bound because of rebinding
# Experimental: as §1, §2, §3
# soluble rat CD4 = biological target: T1, soluble rat CD4; test: BIAcore, 25° C; soluble rat CD4 injected over V-SIRP-CD4d3+4 flowcell and control flowcell
# Experimental: FIG. 6. The NH2-terminal V domain of SIRP binds CD47. Soluble rat CD4 and hCD47-CD4d3+4 were injected into flowcells with immobilised V-SIRP-Cd4d3+4 (solid line) or control rat CD4 (dashed line).
# as §2
# To localise the CD47 binding site on SIRP a construct containing only the NH₂-terminal V-like domain of hSIRP in frame with CD4d3+4 was made. V-SIRP-CD4d3+4 was immobilised in one flowcell via a CD4 mAb (OX68). The free OX68 in this flowcell and all the OX68 in the control flowcell was blocked with soluble rat CD4. Blocking was verified by repeating the injection of soluble rat CD4 (FIG. 6). Soluble hCD47-CD4d3+4 was then injected over both the flowcells. […]
Binder,koff [1] [s⁻¹],Kd [2] [µM],koff [3] [s⁻¹],Kd [4] [µM],koff [5] [s⁻¹],koff [6] [s⁻¹],binding result (soluble rat CD4)
B1,1.3,8.5,2.1,7.6,1.6,≥ 2.1,
B2,,,,,,,no binding
